± gives the half width of the 95% confidence interval.
Assay: folding stability dG unfold from chymotrypsin proteolysis; higher = more stable
How it was run: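 K50 was inferred by Bayesian fitting of sequencing counts obtained after protease digestion of designed mini-proteins. Unfolding free energy was derived by comparison with a sequence-predicted unfolded-state K50 and a shared folded-state K50, for each protease or both combined. The mini-proteins were under 80 residues, had no cysteine, were carried in a PA-tagged cDNA display construct, and were kept only if AlphaFold2 dimer inter-PAE exceeded 15.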

Sequence | folding stability dG unfold
SAGGSAGGSLTIRFPEELSPEEAVELAEGLVRELFPEDVPVTVTVVFYDPETGEELTIPAELASAGGSAGGS [r12_1051_TrMRF] | 1.35 ± 0.025 kcal/mol
SAGGRGEGTMNDPEGGRVYKSEYDPGDGQAEIEPKPVPPVPPIDAEELAEELEQKNGLPNDDVEDMLGSAGG [r13_824_TrROS] | -0.208 ± 0.44 kcal/mol
SAGGSAGGPLVVGRGTFPDGFTADAELRVPDSSETFYRTIEPGASLDEIPENYEVANITLSPAGSAGGSAGG [r6_758_TrMRF] | -0.176 ± 0.13 kcal/mol
SAGGMKITITLTVKNEELLEELKKLAEELGLKVKIEVKYDEETNELTVTVEIELPPPPEEPSEEELKSAGGS [r16_262_TrROS_Hall] | 3.4 ± 0.14 kcal/mol
SAGMTVTVTLNYPTPGGPVTVRVLRGDEEEVVTVPPTETLTITVTLDPDSGATIEVFFPDGSSKTYPLGSAG [r5_187_JUSTAS] | 3.76 ± 0.14 kcal/mol
SAGGSAGGSMIVKLEDGTYLVRIVNKDTKEVIEIEVSAEEAEELAKELNIEKVEIVKAGEPLESAGGSAGGS [r12_294_TrROS_Hall] | 2.71 ± 0.059 kcal/mol
SALEEEVKKRAEEIAQEIKEKFPNVKEKVVEIELPLPNGTKLKATVTISRSINEKGIEYKIKIEVSEGLSAG [r14_788_JUSTAS] | 3.99 ± 0.12 kcal/mol
SAGGSAGGMTLVLEGMSEEELEELARKLRELAEELGLKVKITVERREDGRVRLTVEIELPEELPSAGGSAGG [r6_906_TrROS_Hall] | 3.69 ± 0.23 kcal/mol
SAGNDEEDQKKAEEQQKPPLEIEPIRVMVMVPFPGGDLLISITIPIIKYPDGGIIIPIPIEIIPLEDISAGG [r19_11_TrROS] | 2.84 ± 0.085 kcal/mol
SAGGSAGGSKEIVIKVNVSEEDLKEKAEELLKKLEELLPPGAKIKKIEIEYDEETGELVIKIESAGGSAGGS [r12_308_TrROS_Hall] | 1.94 ± 0.15 kcal/mol
SAGGSAGGSAGGLPPDVRLRVRITRPDGTVLEFDAPADVEIFFPDVPPEWRIEVDAEDVSAGGSAGGSAGGS [r10_774_TrMRF] | 2.49 ± 0.057 kcal/mol
SAGGSAGGSYYPIEDPNGMKIWVEPDPDNGMYRIRIQFPEGKKVERTFPPGMPLDDIPIKIKDSAGGSAGGS [r12_261_TrROS] | -0.0445 ± 0.38 kcal/mol
SAGGSAGGSADPNAFPITIFTFKMEIEDVEKTPNGQPELRYKMEVVEIRPIWLPPDDLEDLSAGGSAGGSAG [r3_121_TrROS] | 4.39 ± 0.097 kcal/mol
SAGGTMKYDVEQKYKYPDPDGNPGGEGKHTQEVEVPPPPVIIIPPNDRELAKELAEKFGIPITPDDIASAGG [r19_315_TrROS] | 0.5 ± 0.25 kcal/mol
SAGGSVTLPDATVVKVPPSQDWQEHADRLAAEIREAGADYEVSVESTPDGSVLITITVPGRTWTMVTSAGGS [r16_771_JUSTAS] | 0.49 ± 0.077 kcal/mol
SAGGSAGGSAGKPTLKLVLKFDSPEQAKAAAEALAKAGYKVKVELKEYPDGLYLVVTVEPSAGGSAGGSAGG [r11_677_TrROS_Hall] | 4.41 ± 0.13 kcal/mol

Sequence | folding stability dG unfold
SAGGSAGGSAGMKKVLIIGGPKEELAKELKEKSPDIEVEFLDPSEDLEEYKKKFDIVIIESAGGSAGGSAGG [r17_225_JUSTAS] | 0.255 ± 0.072 kcal/mol
SAGGSAGGSPSEEARKKGGLTLTITLRYPDGSTVTITYPVSTPLTIPEEFAKNPPKIESIELSSAGGSAGGS [r12_161_JUSTAS] | 1.38 ± 0.051 kcal/mol
SAGGSANGKRVEVPITIFFYRRDPEDGKWEPIFPFEIPIRIPVPPGAEVTIEIEFTGNMFRITIEVSAGGSA [r15_537_TrROS] | 4.53 ± 0.094 kcal/mol
SAGGSAGGSAGGPMPVSVSPIGTKVEKTEEPLVVETTTTLSDAEGPPVTTTTTTVTPPSTSAGGSAGGSAGG [r11_129_JUSTAS] | 1.33 ± 0.1 kcal/mol
SAMTLTLTVPPGAKVRVRITNENGETTEIEVEPGETVTITLPAGSTVRVEVEVVDPDGRKRTETFTLKPSAG [r14_568_TrROS_Hall] | 3.22 ± 0.07 kcal/mol
SAKKITLTPPNGKKITITVHPDGSITITYEKGKITLPGHPGAKIKKATVDPKKGYITIIVNDKPIVIPISAG [r14_276_TrMRF] | 2.83 ± 0.071 kcal/mol
SAGGSAGGSAGGSMPENLVTITTETTVVKSPLANPVNESPVWEVEVISSPVTVVPPSLLSAGGSAGGSAGGS [r4_417_JUSTAS] | 0.0877 ± 0.12 kcal/mol
SAGGSAGGSGMMYKVTVEIYNPANGEKIGTIEREVTSEEEAKAEIEKELPLENVKVKITIEGPSAGGSAGGS [r12_578_JUSTAS] | 0.818 ± 0.18 kcal/mol
SAGGSAKIPVMFMIESPEQIIELVDEFAPPGHEVKVKIDNVEPFPMREDGEERPYYMFRVTIEFPPSAGGSA [r15_95_TrROS] | 1.84 ± 0.16 kcal/mol
SAGGEIPPNAKIDELEISPGSGYIRIKVEFYDPDGKPIWKMTITIPIKPVPRPSPEDQKEQNKKNKKSAGGS [r16_697_TrROS] | 2.68 ± 0.12 kcal/mol
SAGMEAIRKKAEELAKKGKIFKITLTGPDGIPETKILSPEEFKKFLEEFPDPEAIASVEVEAYEPGKPISAG [r5_957_JUSTAS] | 3.78 ± 0.046 kcal/mol
SAGPVVTLTVTVEIEVDGVRVEVTVTATLLPDGTVVITATVKVTLPNGETKTVTVTLTFPPGVDEVVLTSAG [r5_829_TrROS_Hall] | 3.42 ± 0.18 kcal/mol
SAGGSITVSEDESNLTFTIPVPPTEPLTPEEVRAAAEALLAELGPDIRVLSIERLPDGGYRVEAEVRSAGGS [r8_103_JUSTAS] | 1.6 ± 0.043 kcal/mol
SAGMKITYKRPDGTPAEPIPEEEIKKLAEEKAKELYPNKPDATVTVTITIKTNNNEPLIITMTVTIKNESAG [r5_526_JUSTAS] | 1.13 ± 0.18 kcal/mol
SAGAVEKLRKELEELGYEVELEEVEDEETGKTYFILRIRNPDGEIYEIKVDKKTGEIVEIFKVDNLEELSAG [r5_938_TrROS_Hall] | 4.17 ± 0.064 kcal/mol

From the supplement of paper PMC12764529
